B1: psNb 2-31 (VHH)
VHH: QVQLVESGGGLVQAGESLRLSCAASKPTFRNFAAGWFRQTPGKDREFVAVIEYDGDSAYYADSVKGRFTISRDNAKNTVYLQMNRLKPGDTAVYICAIGGNHYDPSKYYTADEYDYWGQGTQVTVSS
B2: psNb 2-34 (VHH)
VHH: HVQLVESGGGLVQAGGSLRLSCAASGRTFSRYAAGWFRQAPGKEREFVAVIEWDGDSAYYADPVKGRFTISRDNAKNTVYLQMNRLKPEDTAVYICAVGGNHYSRSKYYNLDEYDDWGQGTQVTVSS
B3: psNb 2-45 (VHH)
VHH: QVQLVESGGGLVQAGGSLRLSCTASGYDFSILAIAWYRQAPGKERELVAAISRVGSTDYADSVKGRFTISRDNTKNTVSLQMDSLKPEDTAVYYCNAGIPMTTVLSGLGFWGQGTQVTVSS
B4: psNb 2-65 (VHH)
VHH: HVQLVESGGGLVQAGGSLRLSCAASGTISTLNAMGWYRQAPGKQRELLASISNLGTTYHADSVAGRFTISRGSAKNTVNLQMNSLKPDDTAVYYCNTRVLEGGTQIRDYWGQGTQVTVSS
B5: psNb 1-23 (VHH)
VHH: QVQLVESGGGLVQAGGSLRLSCAASGRTDSISDMGWFRQAPGKEREFVAVVGWSGGGTDYAHSVKGRFTISRDNAKNTVYLQMNSLKPEDTAVYYCAVGSLRVGSFSVEYWGQGTQVTVSS
B6: psNb 1-21 (VHH)
VHH: HVQLVESGGGLVQAGGSLRLSCAAPGRTFSTSAMGWFRQAPGKEREFVAAIDWSNTNIHYADTVKGRFTISTDTAKNTVYLQMNNLKPEDTAVYYCAQGGWGLTQPISVDYWGKGTQVTVSS
B7: psNb 1-22 (VHH)
VHH: HVQLVESGGGLVQPGGSLRLSCAASGRSFNSYLMGWFRQAPGKEREFVAWISGSPHDIIRYRDSVKDRFTISRDNAKNTVYLQMNSLKPVDTAVYYCAVGSLRVGSFSPDYWGQGTQVTVSS
B8: psNb 2-38 (VHH)
VHH: QVQLVESGGGLVQAGGSLRLSCAAAARFSTSAMGWFRQAPGKEREFVAAISWSNTNTHYADTVKGRFTISADTAKETVDLQMNSLKPEDTAVYYCVQGGWGIRQPIIVDYWGKGTQVTVSS
B9: psNb 2-10 (VHH)
VHH: QVQLVESGGGLVQPGGSLRLSCAASGFTFNRYAMSWVRQAPGKGREWVSGIYSDGSETYYTESVKGRFTISRDNAKNMLYLQMNSLKPEDTALYYCAKDENAHEDYFNSGFDRKYDYWGQGTQVTVSS
B10: psNb 2-67 (VHH)
VHH: EVQLVESGGGLVQTGGSLRLSCALSGYTFSIFPTAWFRQAPGKEREFVAGIRWNGSTRDYTEYADFVKGRFTISRDNAKNMVYLQMISLKPEDTALYYCAASDGVIDGTNANAYRYWGQGTQVTVSS
B11: psNb 1-25 (VHH)
VHH: HVQLVESGGGLVQAGGSLRLSCATSGRTFSTYRMSWFRQAPGKEREFVATIIWSVGSTHYADSVKGRFTISRDNAKNMVYLQMNSLKPEDTAVYYCAAQRSDSSSWGYEDDYDYWGQGTQVTVSS
B12: psNb 2-62 (VHH)
VHH: QVQLVESGGGLVQAGGSLRLSCAASGRTFSTYAMAWFRQAPGKEREFVAGVARSADTTYYGDSVKGRFTISRDNAKNEVNLQMSSLKPEDTAVYYCAARSVIQYGIVPGNDFHYEYWGQGTQVTVSS

The record followed here is paper doi:10.1101/2021.12.26.474192 (bioRxiv, 2021).

By Kd is commonly meant the concentration at which binding is half-saturated. Higher therefore signals a looser complex.

Bounds are passed on as bounds.

The first assay addresses Rs4092-CoV RBD, residues 314-496 (Bat SARS-like coronavirus Rs4092, UniProt A0A2D1PX37, strain). Briefly: ELISA. For orientation: An ELISA detects its analyte on a solid surface through an enzyme-linked reagent.
For the molecule B1, the binding result was “binds”.
On the same count and under the same terms, the entry for B2 is “binds”; for B3 it is “binds”.

In another assay the target is SHC014-CoV RBD, residues 307-524 (Bat SARS-like coronavirus RsSHC014, UniProt U5WLK5, strain). In words: ELISA.
For the molecule B1, the binding result is “binds”.
Still for that read-out and setting: the entry for B2 is “binds”; for B3 it is “binds”.

A further assay addresses RaTG13-CoV RBD, residues 319-541 (Bat coronavirus RaTG13, UniProt A0ABF7PLN6, strain). In words: ELISA.
On to B1, for which the binding result is given as “binds”.
Regarding B2, the binding result was “binds”.
On the same count and under the same terms, the value for B3 was “binds”.

For another assay, the target named is T1, SARS-CoV-2 receptor-binding domain (RBD), S protein residues 319-539 (SARS-CoV-2, GenBank MN985325.1 …, UniProt P0DTC2). In words: ELISA.
Regarding B4, the binding result is reported as “binds”.
Turning to B5, the binding result was “binds”.
With B6, the binding result was “binds”.
Regarding B2, the binding result is “binds”.
With B7, the binding result is listed as “binds”.
As for B8, the binding result is “binds”.

A further assay addresses Rf1-CoV RBD, residues 310-515 (Bat SARS CoV Rf1/2004, UniProt Q0QDZ0, strain). Briefly: ELISA.
Take B1: the binding result is reported as “binds”.
For the molecule B2, the binding result is “binds”.
Turning to B3, the binding result is “binds”.

Another assay addresses pangolin17-CoV RBD, residues 317-539 (Pangolin coronavirus (pangolin17), strain). Briefly: ELISA.
B1: the binding result is recorded as “binds”.
As to B2, the binding result is given as “binds”.
Take B3: the binding result is listed as “binds”.

Another assay addresses Rs4081-CoV RBD, residues 310-515 (Bat SARS-like coronavirus Rs4081, UniProt A0A2D1PX44, strain). Briefly: ELISA.
Consider B1, for which the binding result was “binds”.
The same measure, in the same setting: the value for B2 was “binds”; that for B3 was “binds”.

Another assay concerns the target T2, BM-4831-CoV RBD, residues 310-530 (Bat coronavirus BM48-31/BGR/2008, strain). Briefly: ELISA.
Consider B4, for which the binding result was “binds”.
Consider B5, for which the binding result is given as “binds”.
Turning to B2, the binding result is “binds”.
Turning to B7, the binding result is “binds”.
Still for that read-out and setting: the value for B8 was “binds”.

The target of a further assay is W1V1-CoV RBD, residues 307-528 (Bat SARS-like coronavirus WIV1 (printed …, UniProt U5WI05)). In words: ELISA.
B1: the binding result is “binds”.
Still for that read-out and setting: the entry for B2 is “binds”; for B3 it is “binds”.

In another assay the target is Rp3-CoV RBD, residues 322-504 (Bat coronavirus Rp3/2004, UniProt Q3I5J5). In words: ELISA.
B1: the binding result is given as “binds”.
The same measure, in the same setting: the value for B2 was “binds”; that for B3 was “binds”.

Another assay deals with HKU3-1-CoV RBD, residues 322-505 (Bat coronavirus HKU3, isolate HKU3-1, UniProt Q3LZX1, strain). In words: ELISA.
Turning to B1, the binding result is “binds”.
B2: the binding result is given as “binds”.
Same read-out and setting: the value for B3 was “binds”.

The next assay has as its target Rs7327-CoV RBD, residues 319-518 (Bat SARS-like coronavirus Rs7327, UniProt A0A2D1PXC0, strain). Briefly: ELISA.
Turning to B1, the binding result was “binds”.
Take B2: the binding result is “binds”.
On the same count and under the same terms, the entry for B3 is “binds”.

Another assay concerns the target ZC45-CoV RBD, residues 327-509 (Bat SARS-like coronavirus ZC45, UniProt A0A2R3SUW7, strain). In words: ELISA.
In the case of B1, the binding result was “binds”.
Regarding B2, the binding result is recorded as “binds”.
For B3, the binding result is “binds”.

The next assay has as its target T3, SARS-CoV RBD, residues 318-510 (SARS-CoV (GenBank AAP13441.1), UniProt P59594). Briefly: ELISA.
On to B5, for which the binding result is “binds”.
In the case of B6, the binding result is reported as “binds”.
B2: the binding result is recorded as “binds”.
Same read-out and setting: the entry for B7 is “binds”.
Still for that read-out and setting: the value for B8 was “binds”.

A further assay has as its target YN2013-CoV RBD, residues 314-496 (BtRs-BetaCoV/YN2013, UniProt A0A0U1WJY8, strain). In words: ELISA.
As to B1, the binding result is on record as “binds”.
On the same count and under the same terms, the entry for B2 is “binds”; for B3 it is “binds”.

The next assay concerns the target BtkY72-CoV RBD, residues 309-530 (Bat sarbecovirus BtKY72, UniProt A0A3Q8AKM0). In words: ELISA.
Regarding B1, the binding result is listed as “binds”.
On the same count and under the same terms, the value for B2 was “binds”; that for B3 was “binds”.

A further assay concerns the target Shaanxi2011-CoV RBD, residues 321-502 (Bat coronavirus Rp/Shaanxi2011, UniProt R9QTA0, strain). Briefly: ELISA.
For the molecule B1, the binding result is reported as “binds”.
Still for that read-out and setting: the entry for B2 is “binds”; for B3 it is “binds”.

The next assay has as its target Yun11-CoV RBD, residues 310-515 (Bat coronavirus Cp/Yunnan2011, UniProt R9QTH3). Briefly: ELISA.
Turning to B1, the binding result was “binds”.
For the molecule B2, the binding result was “binds”.
The same measure, in the same setting: the value for B3 was “binds”.

The target of another assay is T1, SARS-CoV-2 receptor-binding domain …. Briefly: cryo-EM structure.
In the case of B9, the binding result is given as “binds”.
For B10, the binding result was “binds”.
The same measure, in the same setting: the value for B11 was “binds”; that for B12 was “binds”.

Another assay has the same target. In words: SPR. In general terms: Surface plasmon resonance follows binding to a sensor surface in real time, without labels.
Take B1: the Kd is < 1 pM.
Still for that read-out and setting: the figure for B3 is 390 pM.

Another assay addresses T2, BM-4831-CoV RBD, residues 310-530. In words: SPR.
B1 registered a Kd of 3600 pM.
On to B3, for which the Kd was 44 pM.

The target in a further assay is T3, SARS-CoV RBD, residues 318-510. In words: SPR.
In turn, B1 displayed a Kd of 3.96 pM.
Consider B3, for which the equilibrium dissociation constant (Kd) amounted to 304000 pM.

In the next assay the target is SARS-CoV-2 spike receptor-binding domain (RBD) used in the crystallographic study (SARS-CoV-2, UniProt P0DTC2). In words: crystal structure.
In the case of B6, the binding result is “binds”.
